In paper PMC3589492, “Intersubunit Ionic Interactions Stabilize the Nucleoside Diphosphate Kinase of Mycobacterium tuberculosis” (PLoS ONE, 2013):

Experiments:
[1] = target: the molecule itself; assay: SEC; Superose 12 column, 50 mM Hepes pH 7.4, 150 mM sodium chloride, 0.4 mL/min, calibrated with molecular weight markers
[2] = target: the molecule itself; assay: cell-based or functional assay

B1: Nucleoside diphosphate kinase of Mycobacterium tuberculosis, wild type (enzyme)
chain: MTERTLVLIKPDGIERQLIGEIISRIERKGLTIAALQLRTVSAELASQHYAEHEGKPFFGSLLEFITSGPVVAAIVEGTRAIAAVRQLAGGTDPVQAAAPGTIRGDFALETQFNLVHGSDSAESAQREIALWFPGA
notes: Nucleoside diphosphate kinase, Mycobacterium tuberculosis; No tag is mentioned; also called Mt-NDPK; wt Mt-NDPK
[1]
  stoichiometry N: 6
[2]
  c1/2 of inactivation/unfolding in urea (10 µg/mL, 16 h): ~5.2 M
